The values that follow come from patent US20050282743A1 (ARBOR VITA, published 2005).

The target of one assay is T1, HPV E6 33 (modified) (HPV strain 33).
T1 construct: also called AA72.1
Nature of the assay: G assay titration, PDZ 0.5 ug/ml.

Assay [1] deals with HPV E6 #35 (cysteine-free) (HPV strain 35). Nature of the assay: G assay titration, PDZ 5 ug/ml.
In assay [2] the target is T2, HPV E6 58 (modified) (HPV strain 58).
T2 construct: also called AA75.1
Nature of the assay: G assay titration, PDZ 0.5 ug/ml.

Assay [3] addresses HPV E6 #35 (cysteine-free) (HPV strain 35). Nature of the assay: G assay titration, PDZ 0.5 ug/ml.
Assay [4] addresses HPV E6 #66 (cysteine-free) (HPV strain 66). Nature of the assay: G assay titration, PDZ 5 ug/ml.
Assay [5] addresses HPV E6 #57 (cysteine-free) (HPV strain 57). Kind of assay: G' assay; Classification 0 = A450 nm 0, not found to interact.
The target in the next assay is T3, HPV E6 77 (modified) (HPV strain 77).
T3 construct: also called AA78.1
The assay is described as above.

The target of assay [6] is HPV E6 #66 (cysteine-free) (HPV strain 66). Kind of assay: G assay titration, PDZ 0.5 ug/ml.
The target of assay [7] is T2, HPV E6 58 (modified). Nature of the assay: G assay titration, PDZ 3 ug/ml.
In assay [8] the target is HPV E6 #66 (cysteine-free) (HPV strain 66). Nature of the assay: G assay titration, PDZ 1 ug/ml.
Assay [9] addresses T2, HPV E6 58 (modified). Kind of assay: G assay titration, PDZ 5 ug/ml.

B1: GST-Atrophin-1 Interacting Protein PDZ domain 1 (other, not shown: a dimerising Fc or GST)
chain: REKPLFTRDASQLKGTFLSTTLKKSNMGFGFTIIGGDEPDEFLQVKSVIPDGPAAQDGKMETGDVIVYINEVCVLGHTHADVVKLFQSVPIGQSVNLVLCRGYP
notes: also called Atrophin-1 Inter; Prot; Atr-P (1/6)
On to B1, for which the Kd – broadly, the free concentration of one partner at which half of the binding sites on the other are occupied at equilibrium, for simple one-to-one binding – with HPV E6 33 (modified) is 5 µM.

B2: GST-KIAA0147 PDZ domain 3 (other, not shown: a dimerising Fc or GST)
chain: ILEGPYPVEEIRLPRAGGPLGLSIVGGSDHSSHPFGVQEPGVFISKVLPRGLAARSGLRVGDRILAVNGQDVRDATHQEAVSALLRPCLELSLLVRRDPAEFIVTD
B2 registered a Kd in assay [1] of 0.35 µM.

B3: GST-DLG1 PDZ domain 2 (other, not shown: a dimerising Fc or GST)
chain: IQLIKGPKGLGFSIAGGVGNQHIPGDNSIYVTKIIEGGAAHKDGKLQIGDKLLAVNNVCLEEVTHEEAVTALKNTSDFVYLKVAKPTSMYMNDGN
With B3, binding in the assay with HPV E6 33 (modified) was put at a Kd of 5 µM.

B4: GST-Outer Membrane PDZ domain 1 (other, not shown: a dimerising Fc or GST)
chain: LLTEEEINLTRGPSGLGFNIVGGTDQQYVSNDSGIYVSRIKENGAAALDGRLQEGDKILSVNGQDLKNLLHQDAVDLFRNAGYAVSLRVQHRLQVQNGIHS
On to B4, for which the affinity in the assay with HPV E6 58 (modified) [2], expressed as Kd, was 5 µM.

B5: GST-KIAA0807(S) PDZ domain 1 (other, not shown: a dimerising Fc or GST)
chain: ISALGSMRPPIIIHRAGKKYGFTLRAIRVYMGDSDVYTVHHMVWHVEDGGPASEAGLRQGDLITHVNGEPVHGLVHTEVVELILKSGNKVAISTTPLENSS
Turning to B5, the Kd in [3] worked out at 0.1 µM; in [4], 5 µM.

B6: GST-PSD95 PDZ domain 3 (other, not shown: a dimerising Fc or GST)
chain: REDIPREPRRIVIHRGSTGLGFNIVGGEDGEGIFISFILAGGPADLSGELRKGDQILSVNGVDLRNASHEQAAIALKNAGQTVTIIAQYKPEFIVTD
In turn, B6 yielded a Kd in the assay with HPV E6 33 (modified) of 5 µM.

B7: GST-FLJ00011 PDZ domain 1 (other, not shown: a dimerising Fc or GST)
chain: KNPSGELKTVTLSKMKQSLGISISGGIESKVQPMVKIEKIFPGGAAFLSGALQAGFELVAVDGENLEQVTHQRAVDTIRRAYRNKAREPMELVVRVPGPSPRPSPSD
For the molecule B7, in [1], the Kd amounted to 0.35 µM.

B8: GST-KIAA1095 PDZ domain 1 (other, not shown: a dimerising Fc or GST)
chain: QGEETKSLTLVLHRDSGSLGFNIIGGRPSVDNHDGSSSEGIFVSKIVDSGPAAKEGGLQIHDRIIEVNGRDLSRATHDQAVEAFKTAKEPIVVQVLRRTPRTKMFTP
In the assay with HPV E6 33 (modified), B8 had a Kd of 5 µM.

B9: GST-BAI-1 Associated Protein PDZ domain 2 (other, not shown: a dimerising Fc or GST)
chain: PSELKGKFIHTKLRKSSRGFGFTVVGGDEPDEFLQIKSLVLDGPAALDGKMETGDVIVSVNDTCVLGHTHAQVVKIFQSIPIGASVDLELCRGYPLPFDPDDPN
notes: also called BAI-1 (2/6)
With B9, the binding result (in assay [5]; in the assay with HPV E6 77 (modified)) was “no binding (tested: 10 uM peptide)” each time. For the same molecule, the affinity in assay [6], expressed as Kd, was 3 µM.

B10: GST-NeDLG PDZ domain 2 (other, not shown: a dimerising Fc or GST)
chain: ITLLKGPKGLGFSIAGGIGNQHIPGDNSIYITKIIEGGAAQKDGRLQIGDRLLAVNNTNLQDVRHEEAVASLKNTSDMVYLKVAKPGSLE
In turn, B10 came in with a Kd in [6] of 3.5 µM.

B11: GST-ERBIN PDZ domain 1 (other, not shown: a dimerising Fc or GST)
chain: QGHELAKQEIRVRVEKDPELGFSISGGVGGRGNPFRPDDDGIFVTRVQPEGPASKLLQPGDKIIQANGYSFINIEHGQAVSLLKTFQNTVELIIVREVSS
In assay [1], B11 yielded a Kd of 0.4 µM.

B12: GST-KIAA1526 PDZ domain 1 (other, not shown: a dimerising Fc or GST)
chain: PDSAGPGEVRLVSLRRAKAHEGLGFSIRGGSEHGVGIYVSLVEPGSLAEKEGLRVGDQILRVNDKSLARVTHAEAVKALKGSKKLVLSVYSAGRIPGGYVTNH
B12 came in with a Kd in assay [1] of 1 µM.

B13: GST-DLG2 PDZ domain 2 (other, not shown: a dimerising Fc or GST)
chain: ISVVEIKLFKGPKGLGFSIAGGVGNQHIPGDNSIYVTKIIDGGAAQKDGRLQVGDRLLMVNNYSLEEVTHEEAVAILKNTSEVVYLKVGNPTTI
Take B13: the Kd in assay [3] is 0.2 µM.

B14: GST-Atrophin-1 Interacting Protein PDZ domain 2 (other)
chain: LSGATQAELMTLTIVKGAQGFGFTIADSPTGQRVKQILDIQGCPGLCEGDLIVEINQQNVQNLSHTEVVDILKDCPIGSETSLIIHRGGFF
In turn, B14 displayed a dissociation constant (Kd) in [1] of 0.8 µM.

B15: GST-NeDLG PDZ domains 1, 2 (other, not shown: a dimerising Fc or GST)
chain: YEEIVLERGNSGLGFSIAGGIDNPHVPDDPGIFITKIIPGGAAAMDGRLGVNDCVLRVNEVDVSEVVHSRAVEALKEAGPVVRLVVRRRQPPPETIMEVNLLKGPKGLGFSIAGGIGNQHIPGDNSIYITKIIEGGAAQKDGRLQIGDRLLAVNNTNLQDVRHEEAVASLKNTSDMVYLKVAKPGSL
notes: domain: PDZ domains 1-2; also called NeDLG 1, 2
The molecule B15 yielded a Kd in assay [6] of 1 µM.

B16: GST-MUPP1 PDZ domain 10 (other, not shown: a dimerising Fc or GST)
chain: LPGCETTIEISKGRTGLGLSIVGGSDTLLGAIIIHEVYEEGAACKDGRLWAGDQILEVNGIDLRKATHDEAINVLRQTPQRVRLTLYRDEAPYKE
B16 showed a Kd with HPV E6 58 (modified) [7] of 5 µM.

B17: GST-TIP1 PDZ domain 1 (Table 9 insert) (other, not shown: a dimerising Fc or GST)
chain: QRVEIHKLRQGENLILGFSIGGGIDQDPSQNPFSEDKTDKGIYVTRVSEGGPAEIAGLQIGDKIMQVNGWDMTMVTHDQARKRLTKRSEEVVRLLVTRQSLQK
notes: also called TIP-1 1/1
For B17, the Kd in assay [8] worked out at 5 µM.

B18: GST-NeDLG PDZ domain 3 (other, not shown: a dimerising Fc or GST)
chain: ILLHKGSTGLGFNIVGGEDGEGIFVSFILAGGPADLSGELRRGDRILSVNGVNLRNATHEQAAAALKRAGQSVTIVAQYRPEEYSRFESKIHDLREQMMNSSMSSGSGSLRTSEKRSLE
In the assay with HPV E6 58 (modified) [9], B18 registered a Kd of 5 µM.
